This is an account of results in the Human Domainome abundance scans (Beltran et al. 2025).

The labels stand for the following.
B1: Homeobox protein cut-like 1, residues 548 to 629; numbered along this chain, P39880 (parent)
chain: GEEMDTAEIARQVKEQLIKHNIGQRIFGHYVLGLSQGSVSEILARPKPWNKLTVRGKEPFHKMKQFLSDEQNILALRSIQGR

± gives the uncertainty stated by the source.

In the data set the parent is B1. Description: abundance fitness (aPCA) (normalised: wild type 0, dead -1); higher = more abundant; growth selection in yeast, the domain comes from the species named. The following applies: Homo sapiens.
For GEEMDTAEIARQVKEQLIKHNIGQRIFGHYVLGLSQGSVSEILARPKPWNKLTVRGKEPFHKMKQFLSDEQNILALRSIQGQ [R82Q], the abundance fitness worked out at 0.172 ± 0.067.

With GEEMDTAEIARQVKEQLIKHNIGQRIFGHYVLGLSQGSVSEILARPKPWNKLTVRGKEPFHKMKQFLSDEQNILALRSIQGN [R82N], the abundance fitness is 0.076 ± 0.089.

GEEMDTAEIARQVKEQLIKHNIGQRIFGHYVLGLSQGSVSEILARPKPWNKLTVRGKEPFHKMKQFLSDEQNILALRSIQGW [R82W]: the abundance fitness is -0.149 ± 0.049.

Turning to GEEMDTAEIARQVKEQLIKHNIGQRIFGHYVLGLSQGSVSEILARPKPWNKLTVRGKEPFHKMKQFLSDEQNILALRSIQGY [R82Y], the abundance fitness was -0.079 ± 0.067.

Regarding GEEMDTAEIARQVKEQLIKHNIGQRIFGHYVLGLSQGSVSEILARPKPWNKLTVRGKEPFHKMKQFLSDEQNILALRSIQGS [R82S], the abundance fitness amounted to 0.011 ± 0.046.

For the variant GEEMDTAEIARQVKEQLIKHNIGQRIFGHYVLGLSQGSVSEILARPKPWNKLTVRGKEPFHKMKQFLSDEQNILALRSIQGL [R82L], the abundance fitness is -0.06 ± 0.047.

As for GEEMDTAEIARQVKEQLIKHNIGQRIFGHYVLGLSQGSVSEILARPKPWNKLTVRGKEPFHKMKQFLSDEQNILALRSIQGV [R82V], the abundance fitness was found to be 0.024 ± 0.046.

As for GEEMDTAEIARQVKEQLIKHNIGQRIFGHYVLGLSQGSVSEILARPKPWNKLTVRGKEPFHKMKQFLSDEQNILALRSIQGT [R82T], the abundance fitness is -0.039 ± 0.052.

GEEMDTAEIARQVKEQLIKHNIGQRIFGHYVLGLSQGSVSEILARPKPWNKLTVRGKEPFHKMKQFLSDEQNILALRSIQGK [R82K]: the abundance fitness was 0.123 ± 0.07.

In the case of GEEMDTAEIARQVKEQLIKHNIGQRIFGHYVLGLSQGSVSEILARPKPWNKLTVRGKEPFHKMKQFLSDEQNILALRSIQGP [R82P], the abundance fitness came to 0.065 ± 0.063.

With GEEMDTAEIARQVKEQLIKHNIGQRIFGHYVLGLSQGSVSEILARPKPWNKLTVRGKEPFHKMKQFLSDEQNILALRSIQGM [R82M], the abundance fitness is -0.047 ± 0.056.
